Data as given in publication PMC8657434, “Aedes aegypti Piwi4 Structural Features Are Necessary for RNA Binding and Nuclear Localization”.

T1: AePiwi4 PAZ T41R (Aedes aegypti, UniProt Q171B3 270-380, T310R)
T1 sequence: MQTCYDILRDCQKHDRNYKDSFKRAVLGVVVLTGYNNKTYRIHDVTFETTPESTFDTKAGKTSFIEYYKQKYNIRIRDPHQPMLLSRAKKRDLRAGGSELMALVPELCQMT

T2: AePiwi4 PAZ WT (Aedes aegypti, UniProt Q171B3 270-380)
T2 sequence: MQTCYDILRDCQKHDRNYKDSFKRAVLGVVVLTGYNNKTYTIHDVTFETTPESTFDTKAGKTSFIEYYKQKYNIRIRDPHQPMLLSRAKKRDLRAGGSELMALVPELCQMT

T3: AePiwi4 PAZ T41A (Aedes aegypti, UniProt Q171B3 270-380, T310A)
T3 sequence: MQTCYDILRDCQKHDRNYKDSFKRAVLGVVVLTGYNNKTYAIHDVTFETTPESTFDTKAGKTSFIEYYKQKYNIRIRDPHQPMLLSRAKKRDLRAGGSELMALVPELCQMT

T4: AePiwi4 PAZ Y40A (Aedes aegypti, UniProt Q171B3 270-380, Y309A)
T4 sequence: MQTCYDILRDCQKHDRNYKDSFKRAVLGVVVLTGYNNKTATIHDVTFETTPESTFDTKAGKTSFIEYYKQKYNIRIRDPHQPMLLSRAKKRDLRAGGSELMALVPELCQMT

T5: AePiwi4 PAZ T39A (Aedes aegypti, UniProt Q171B3 270-380, T308A)
T5 sequence: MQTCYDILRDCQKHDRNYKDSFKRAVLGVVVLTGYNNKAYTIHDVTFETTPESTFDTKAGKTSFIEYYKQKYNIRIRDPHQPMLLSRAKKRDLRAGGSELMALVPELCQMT

T6: AePiwi4 PAZ F55A (Aedes aegypti, UniProt Q171B3 270-380, F324A)
T6 sequence: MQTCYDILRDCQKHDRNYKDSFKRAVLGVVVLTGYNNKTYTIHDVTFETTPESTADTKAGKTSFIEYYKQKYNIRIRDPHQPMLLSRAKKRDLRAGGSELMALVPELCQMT


Experiments:
Assay in all cases: SPR; SPR (Biacore T100, CM5-neutravidin, 5'-biotin RNA immobilized): 10 mM HEPES pH 7.4, 150 mM NaCl, 3 mM EDTA, 0.005% P20; steady-state fit; temperature not stated
Details in all cases: protein: recombinant; tags: 6xHis (C-terminal); label: 5' biotin; single strand
AePiwi4 PAZ T41R = target: T1, AePiwi4 PAZ T41R
AePiwi4 PAZ WT = target: T2, AePiwi4 PAZ WT
AePiwi4 PAZ T41A = target: T3, AePiwi4 PAZ T41A
AePiwi4 PAZ Y40A = target: T4, AePiwi4 PAZ Y40A
AePiwi4 PAZ T39A = target: T5, AePiwi4 PAZ T39A
AePiwi4 PAZ F55A = target: T6, AePiwi4 PAZ F55A

Row | Binder | Kd (AePiwi4 PAZ T41R) [nM] | Kd (AePiwi4 PAZ WT) [nM] | Kd (AePiwi4 PAZ T41A) [nM] | Kd (AePiwi4 PAZ Y40A) [nM] | Kd (AePiwi4 PAZ T39A) [nM] | binding result (AePiwi4 PAZ F55A) | binding result (AePiwi4 PAZ Y40A)
1 | CGAUAAGUGAUCUUUCAGCACUGCAGAA (ssRNA, 3' terminal 2'-O-methyl) [3'm 28 nt PCLV piRNA] | 570 ± 100 | 1700 ± 800 | 1400 ± 100 | 5500 ± 500 | 980 ± 200 | no binding | –
2 | AUGAGGACAUAAGCCUACGUAGUAUUCC (ssRNA) [3'nm 28 nt scrambled RNA] | – | 2500 ± 100 | – | – | – | – | –
3 | CGAUAAGUGAUCUUUCAGCACUGCAGAA (ssRNA) [3'nm 28 nt PCLV piRNA] | 2000 ± 500 | 5000 ± 2200 | 5600 ± 1200 | – | 2800 ± 400 | no binding | no binding
